Measured values taken from PMC11417369, “DNA sequence and chromatin differentiate sequence-specific transcription factor binding in the human malaria parasite Plasmodium falciparum”.
Changes are numbered by the printed parent chain.

B1: GTGCAC_negctrl_site432 (dsDNA)
DNA 1: AAAAAAATAATATAAATAATGAAAAGATATAAATAA
DNA 2: TTATTTATATCTTTTCATTATTTATATTATTTTTTT
B2: GTGCAC_negctrl_site534 (dsDNA)
DNA 1: TTTTTTATCTAATATTTTATAATTTTCATAAATTTG
DNA 2: CAAATTTATGAAAATTATAAAATATTAGATAAAAAA
B3: GTGCAC_negctrl_site22 (dsDNA)
DNA 1: AATATATTGTTTCCTGATATTAAATTCAATTTAATG
DNA 2: CATTAAATTGAATTTAATATCAGGAAACAATATATT
B4: GTGCAC_negctrl_site76 (dsDNA)
DNA 1: B3 DNA 1 with T8G, G9C, C14G, G16T
DNA 2: B3 DNA 2 with C21A, G23C, C28G, A29C
B5: GTGCAC_negctrl_site418 (dsDNA)
DNA 1: TATTGACAAAAAAAAAAAAGGTAAAAAAGAAAGAAA
DNA 2: TTTCTTTCTTTTTTACCTTTTTTTTTTTTGTCAATA
B6: GTGCAC_negctrl_site174 (dsDNA)
DNA 1: AAGAAAAAAAAAAAAAAAAAAAAAAAAAAGGAAAAA
DNA 2: TTTTTCCTTTTTTTTTTTTTTTTTTTTTTTTTTCTT
B7: GTGCAC_negctrl_site125 (dsDNA)
DNA 1: AAAAATTATAAAAAACAAATATTAAATAATTATTAA
DNA 2: TTAATAATTATTTAATATTTGTTTTTTATAATTTTT
B8: GTGCAC_negctrl_site216 (dsDNA)
DNA 1: GGTAGATTATTATTAACGAAAAATGTTTTTAACATA
DNA 2: TATGTTAAAAACATTTTTCGTTAATAATAATCTACC
B9: GTGCAC_negctrl_site247 (dsDNA)
DNA 1: TGTTTATAAATATAAAAAAATATATATATATATTAT
DNA 2: ATAATATATATATATATTTTTTTATATTTATAAACA
B10: GTGCAC_negctrl_site494 (dsDNA)
DNA 1: AAGTTTAAGAAATAATTCATATTTACTTCCATCCTC
DNA 2: GAGGATGGAAGTAAATATGAATTATTTCTTAAACTT
B11: GTGCAC_negctrl_site409 (dsDNA)
DNA 1: ATTGAGGCTGGTTATATAATAATTTTATTATTTTAG
DNA 2: CTAAAATAATAAAATTATTATATAACCAGCCTCAAT
B12: GTGCAC_negctrl_site497 (dsDNA)
DNA 1: TATATAATATATATTTTATATTTGTAATAATTTTTT
DNA 2: AAAAAATTATTACAAATATAAAATATATATTATATA
B13: GTGCAC_negctrl_site271 (dsDNA)
DNA 1: TTGTTAATAAATAAATAAATAAATATATTTATATAT
DNA 2: ATATATAAATATATTTATTTATTTATTTATTAACAA
B14: GTGCAC_negctrl_site277 (dsDNA)
DNA 1: TTTTTTAAATATTATTTTTATGAGTAAATATATTAT
DNA 2: ATAATATATTTACTCATAAAAATAATATTTAAAAAA
B15: GTGCAC_negctrl_site403 (dsDNA)
DNA 1: TATTTCATCTTTTAAGAAGGTACCCATATGTCATAT
DNA 2: ATATGACATATGGGTACCTTCTTAAAAGATGAAATA
B16: GTGCAC_negctrl_site30 (dsDNA)
DNA 1: TCTTAAAAGGGGAATGGAATGGAGAAAATGAAATAA
DNA 2: TTATTTCATTTTCTCCATTCCATTCCCCTTTTAAGA
B17: GTGCAC_negctrl_site567 (dsDNA)
DNA 1: AATATAAACATAGATAGATAAATAAATAAATAAACA
DNA 2: TGTTTATTTATTTATTTATCTATCTATGTTTATATT
B18: GTGCAC_negctrl_site688 (dsDNA)
DNA 1: ATAATTATTTAATATATATATATTATTTCGAATGTT
DNA 2: AACATTCGAAATAATATATATATATTAAATAATTAT
B19: GTGCAC_negctrl_site529 (dsDNA)
DNA 1: TTATTATATATGTTCACATAAATACATAAATATATA
DNA 2: TATATATTTATGTATTTATGTGAACATATATAATAA
B20: GTGCAC_negctrl_site492 (dsDNA)
DNA 1: AAAACCTAAAAGTCTTAAATTTTAAATATACCTACA
DNA 2: TGTAGGTATATTTAAAATTTAAGACTTTTAGGTTTT
B21: GTGCAC_negctrl_site454 (dsDNA)
DNA 1: AAAAAAAAAGTATATATATATTTAAGGAATTCTCTC
DNA 2: GAGAGAATTCCTTAAATATATATATACTTTTTTTTT
B22: GTGCAC_negctrl_site442 (dsDNA)
DNA 1: ATAGTACAACAGGTTCTTGACAAACAATATGAATGT
DNA 2: ACATTCATATTGTTTGTCAAGAACCTGTTGTACTAT
B23: GTGCAC_negctrl_site606 (dsDNA)
DNA 1: TTTAATTTTACATGAGAAACATATTACAATAAAATA
DNA 2: TATTTTATTGTAATATGTTTCTCATGTAAAATTAAA
B24: GTGCAC_negctrl_site41 (dsDNA)
DNA 1: TCTTGATACAAACATTTAAATAAATAAATAAAAAAA
DNA 2: TTTTTTTATTTATTTATTTAAATGTTTGTATCAAGA
B25: GTGCAC_negctrl_site334 (dsDNA)
DNA 1: TTTTTAATTAACTTTTTATAAATAAATAAAAATATA
DNA 2: TATATTTTTATTTATTTATAAAAAGTTAATTAAAAA
B26: GTGCAC_negctrl_site372 (dsDNA)
DNA 1: AAAAAAATCACATAAAATACTTTATTTTATATTATA
DNA 2: TATAATATAAAATAAAGTATTTTATGTGATTTTTTT
B27: GTGCAC_negctrl_site578 (dsDNA)
DNA 1: TTTTATTTTATTCAATTTTTACTTTTATAAAAATAT
DNA 2: ATATTTTTATAAAAGTAAAAATTGAATAAAATAAAA
B28: GTGCAC_negctrl_site197 (dsDNA)
DNA 1: TTTTTAAAAAAGATAAGCGAAAGAATTAATTTTTAA
DNA 2: TTAAAAATTAATTCTTTCGCTTATCTTTTTTAAAAA
B29: GTGCAC_negctrl_site394 (dsDNA)
DNA 1: AAAAAAAATTAAATAAATAAATATACACATATATAT
DNA 2: ATATATATGTGTATATTTATTTATTTAATTTTTTTT
B30: GTGCAC_negctrl_site726 (dsDNA)
DNA 1: GAAAACATTAAAAGTTAGATCATAAGAAAAGAATAT
DNA 2: ATATTCTTTTCTTATGATCTAACTTTTAATGTTTTC
B31: GTGCAC_negctrl_site127 (dsDNA)
DNA 1: ATATATACATATACTATATCTTTTATTTTTATTATT
DNA 2: AATAATAAAAATAAAAGATATAGTATATGTATATAT
B32: GTGCAC_negctrl_site327 (dsDNA)
DNA 1: GCACACATATAATTAAACATATATTTGTATTATTTT
DNA 2: AAAATAATACAAATATATGTTTAATTATATGTGTGC
B33: GTGCAC_negctrl_site721 (dsDNA)
DNA 1: GTTTTAAAATTAAATATTATGGCATAATTCAAGAAA
DNA 2: TTTCTTGAATTATGCCATAATATTTAATTTTAAAAC
B34: GTGCAC_negctrl_site349 (dsDNA)
DNA 1: AAATAAAAATAAAATAAAATAAAATTAAATGGGAAT
DNA 2: ATTCCCATTTAATTTTATTTTATTTTATTTTTATTT
B35: GTGCAC_negctrl_site106 (dsDNA)
DNA 1: AAATAAAATAATTATAATACTAAAAATAATACATAA
DNA 2: TTATGTATTATTTTTAGTATTATAATTATTTTATTT
B36: GTGCAC_negctrl_site172 (dsDNA)
DNA 1: TATTTTTTAAGTGAACATTTGTTATTATATTCTTAT
DNA 2: ATAAGAATATAATAACAAATGTTCACTTAAAAAATA
B37: GTGCAC_negctrl_site225 (dsDNA)
DNA 1: AAATGAATAAAATTTATTTATAAAAGAAAAATCACA
DNA 2: TGTGATTTTTCTTTTATAAATAAATTTTATTCATTT
B38: GTGCAC_negctrl_site374 (dsDNA)
DNA 1: TTTCCGGTAATATGGAGATATATGTGGGTTTTTTTT
DNA 2: AAAAAAAACCCACATATATCTCCATATTACCGGAAA
B39: GTGCAC_negctrl_site469 (dsDNA)
DNA 1: AACAAAGGATTTATATATACATACATACATACATAA
DNA 2: TTATGTATGTATGTATGTATATATAAATCCTTTGTT
B40: GTGCAC_negctrl_site8 (dsDNA)
DNA 1: TTTTGTAGCAAAAAATAGGAAAAAAAAAAATTAAAT
DNA 2: ATTTAATTTTTTTTTTTCCTATTTTTTGCTACAAAA
B41: GTGCAC_negctrl_site517 (dsDNA)
DNA 1: TTTTGAAGTAACAAATAAATAAATAAATATATAAAA
DNA 2: TTTTATATATTTATTTATTTATTTGTTACTTCAAAA
B42: GTGCAC_negctrl_site86 (dsDNA)
DNA 1: ATTTTTTTATACAATTTTATATATTAAATATTATAA
DNA 2: TTATAATATTTAATATATAAAATTGTATAAAAAAAT
B43: GTGCAC_negctrl_site68 (dsDNA)
DNA 1: GCAAAATAACAATGTTACACTTATAAAATTGAGGCA
DNA 2: TGCCTCAATTTTATAAGTGTAACATTGTTATTTTGC
B44: GTGCAC_negctrl_site611 (dsDNA)
DNA 1: ATCGAAATTTTAGAATATATATGATGTTACTTAAGT
DNA 2: ACTTAAGTAACATCATATATATTCTAAAATTTCGAT

target: AP2-I D3 (Plasmodium falciparum, UniProt Q8IJW6 910-1027); experiment: gcPBM; about 25 ug protein; PBS, 1% milk, 0.2 mg/ml BSA, salmon testes DNA, 0.03% Triton X-100; details: tags: N-terminal GST (pGEX-4T-1), kept; label: surface-attached array probe

Binder	binding signal
B1	7.13 ln median PBM intensity, better of two orientations
B2	7.06 ln median PBM intensity, better of two orientations
B3	7.11 ln median PBM intensity, better of two orientations
B4	7.14 ln median PBM intensity, better of two orientations
B5	7.05 ln median PBM intensity, better of two orientations
B6	7.21 ln median PBM intensity, better of two orientations
B7	7.08 ln median PBM intensity, better of two orientations
B8	7.18 ln median PBM intensity, better of two orientations
B9	7.14 ln median PBM intensity, better of two orientations
B10	7.03 ln median PBM intensity, better of two orientations
B11	7.11 ln median PBM intensity, better of two orientations
B12	7.15 ln median PBM intensity, better of two orientations
B13	7.14 ln median PBM intensity, better of two orientations
B14	7.22 ln median PBM intensity, better of two orientations
B15	7.27 ln median PBM intensity, better of two orientations
B16	7.11 ln median PBM intensity, better of two orientations
B17	7.22 ln median PBM intensity, better of two orientations
B18	7.24 ln median PBM intensity, better of two orientations
B19	7.24 ln median PBM intensity, better of two orientations
B20	7.08 ln median PBM intensity, better of two orientations
B21	7.18 ln median PBM intensity, better of two orientations
B22	7.13 ln median PBM intensity, better of two orientations

Binder	binding signal
B23	7.18 ln median PBM intensity, better of two orientations
B24	7.16 ln median PBM intensity, better of two orientations
B25	7.2 ln median PBM intensity, better of two orientations
B26	7.11 ln median PBM intensity, better of two orientations
B27	7.27 ln median PBM intensity, better of two orientations
B28	7.16 ln median PBM intensity, better of two orientations
B29	7.11 ln median PBM intensity, better of two orientations
B30	7.04 ln median PBM intensity, better of two orientations
B31	7.2 ln median PBM intensity, better of two orientations
B32	7.22 ln median PBM intensity, better of two orientations
B33	7.22 ln median PBM intensity, better of two orientations
B34	7.26 ln median PBM intensity, better of two orientations
B35	7.24 ln median PBM intensity, better of two orientations
B36	7.06 ln median PBM intensity, better of two orientations
B37	7.04 ln median PBM intensity, better of two orientations
B38	7.18 ln median PBM intensity, better of two orientations
B39	7.14 ln median PBM intensity, better of two orientations
B40	7.26 ln median PBM intensity, better of two orientations
B41	7.16 ln median PBM intensity, better of two orientations
B42	7.23 ln median PBM intensity, better of two orientations
B43	7.14 ln median PBM intensity, better of two orientations
B44	7.04 ln median PBM intensity, better of two orientations
